{"source": "paper PMC10096250", "about": "“Combined action of albumin and heparin regulates lipoprotein lipase oligomerization, stability, and ligand interactions” (PLOS ONE, 2023)", "binders": {"B1": {"name": "Full-length ANGPTL4 (natural protein)", "chain": "GPVQSKSPRFASWDEMNVLAHGLLQLGQGLREHAERTRSQLSALERRLSACGSACQGTEGSTDLPLAPESRVDPEVLHSLQTQLKAQNSRIQQLFHKVAQQQRHLEKQHLRIQHLQSQFGLLDHKHLDHEVAKPARRKRLPEMAQPVDPAHNVSRLHRLPRDCQELFQVGERQSGLFEIQPQGSPPFLVNCKMTSDGGWTVIQRRHDGSVDFNRPWEAYKAGFGDPHGEFWLGLEKVHSITGDRNSRLAVQLRDWDGNAELLQFSVHLGGEDTAYSLQLTAPVAGQLGATTVPPSGLSVPFSTWDQDHDLRRDKNCAKSLSGGWWFGTCSHSNLNGQYFRSIPQQRQKLKKGIFWKTWRGRYYPLQATTMLIQPMAAEAAS"}, "B2": {"name": "Recombinant N-terminal domain of ANGPTL4 (nANGPTL4^26-184) (domain or fragment, UniProt Q9BY76 26-184, looked up)", "chain": "GPVQSKSPRFASWDEMNVLAHGLLQLGQGLREHAERTRSQLSALERRLSACGSACQGTEGSTDLPLAPESRVDPEVLHSLQTQLKAQNSRIQQLFHKVAQQQRHLEKQHLRIQHLQSQFGLLDHKHLDHEVAKPARRKRLPEMAQPVDPAHNVSRLHRL", "notes": "angiopoietin-like protein 4 (ANGPTL4), N-terminal domain, residues 26-184"}, "B3": {"name": "Bovine lipoprotein lipase (enzyme, UniProt P11151 29-478, looked up)", "chain": "DRITGGKDFRDIESKFALRTPEDTAEDTCHLIPGVTESVANCHFNHSSKTFVVIHGWTVTGMYESWVPKLVAALYKREPDSNVIVVDWLSRAQQHYPVSAGYTKLVGQDVAKFMNWMADEFNYPLGNVHLLGYSLGAHAAGIAGSLTNKKVNRITGLDPAGPNFEYAEAPSRLSPDDADFVDVLHTFTRGSPGRSIGIQKPVGHVDIYPNGGTFQPGCNIGEALRVIAERGLGDVDQLVKCSHERSVHLFIDSLLNEENPSKAYRCNSKEAFEKGLCLSCRKNRCNNMGYEINKVRAKRSSKMYLKTRSQMPYKVFHYQVKIHFSGTESNTYTNQAFEISLYGTVAESENIPFTLPEVSTNKTYSFLLYTEVDIGELLMLKLKWISDSYFSWSNWWSSPGFDIGKIRVKAGETQKKVIFCSREKMSYLQKGKSPVIFVKCHDKSLNRKSG", "notes": "lipoprotein lipase (LPL), bovine, purified from bovine milk; In the RICS experiments 10 nM of the LPL carried ATTO610 (NHS ester labelling) and 190 nM was unlabelled; it says that most experiments were done with bovine LPL; also called bLPL; bovine LPL; source: purified from bovine milk"}}, "key": {"[1]": {"target": "B3"}, "[2]": {"target": "T1, Human serum albumin (human, UniProt P02768 25-609)", "T1 construct": "serum albumin, human; also called HSA", "T1 sequence (P02768 25-609)": "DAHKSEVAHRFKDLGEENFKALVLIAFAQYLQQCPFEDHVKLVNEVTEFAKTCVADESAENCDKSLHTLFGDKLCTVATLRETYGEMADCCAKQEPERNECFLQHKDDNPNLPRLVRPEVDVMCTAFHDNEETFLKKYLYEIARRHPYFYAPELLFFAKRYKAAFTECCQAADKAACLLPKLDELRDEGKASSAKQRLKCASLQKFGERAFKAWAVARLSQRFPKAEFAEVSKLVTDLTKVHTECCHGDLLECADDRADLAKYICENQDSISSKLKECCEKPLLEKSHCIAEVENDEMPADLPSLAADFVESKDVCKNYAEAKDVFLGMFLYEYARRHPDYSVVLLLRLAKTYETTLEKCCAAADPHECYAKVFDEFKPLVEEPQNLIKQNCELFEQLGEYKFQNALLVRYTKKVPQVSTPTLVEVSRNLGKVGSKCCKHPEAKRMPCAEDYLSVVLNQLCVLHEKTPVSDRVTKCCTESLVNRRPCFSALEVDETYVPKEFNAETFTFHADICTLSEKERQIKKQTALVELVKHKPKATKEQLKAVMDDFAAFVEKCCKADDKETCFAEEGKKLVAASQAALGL", "assay": "SPR; nANGPTL4 immobilised; HSA at various concentrations flowed over; plateau values plotted against HSA concentration after subtracting non-specific binding", "conditions": "both partners purified"}, "[3]": {"target": "B3", "assay": "cell-based or functional assay"}, "[4]": {"target": "T2, Bovine serum albumin (bovine, UniProt P02769 25-607)", "T2 construct": "serum albumin, bovine; also called BSA; source: bought: Sigma Aldrich (#A7906)", "T2 sequence (P02769 25-607)": "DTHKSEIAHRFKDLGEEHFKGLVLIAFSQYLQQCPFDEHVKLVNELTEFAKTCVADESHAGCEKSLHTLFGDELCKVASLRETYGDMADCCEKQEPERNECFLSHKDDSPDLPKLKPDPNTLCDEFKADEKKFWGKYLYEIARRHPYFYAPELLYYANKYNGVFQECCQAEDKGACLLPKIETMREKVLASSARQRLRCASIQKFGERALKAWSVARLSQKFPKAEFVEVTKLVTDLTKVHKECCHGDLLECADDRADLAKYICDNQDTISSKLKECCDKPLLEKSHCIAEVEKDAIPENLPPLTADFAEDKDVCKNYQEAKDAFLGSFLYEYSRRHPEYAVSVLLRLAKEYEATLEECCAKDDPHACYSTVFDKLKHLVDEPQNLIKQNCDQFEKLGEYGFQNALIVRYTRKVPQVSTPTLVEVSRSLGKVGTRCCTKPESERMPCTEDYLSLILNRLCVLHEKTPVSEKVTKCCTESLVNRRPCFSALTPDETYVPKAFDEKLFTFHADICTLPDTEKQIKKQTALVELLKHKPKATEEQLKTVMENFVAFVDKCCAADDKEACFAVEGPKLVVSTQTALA", "assay": "not stated; equilibrium dissociation constant of the LPL-albumin complex as given in the introduction; experiment not named"}, "[5]": {"target": "T2, Bovine serum albumin", "assay": "ITC; 752 μM BSA in the syringe titrated (38 injections) into 1.695 μM bLPL with 10 IU/ml heparin; 20 mM HEPES, 150 mM NaCl, pH 7.4; 25°C; apparent KD of the initial binding phase", "conditions": "both partners purified"}}}
{"binder": "B1", "values": [{"measurement": "residual LPL activity (ITC, human plasma) after 130 min of 200 nM LPL with 1 μM ANGPTL4 in the presence of both heparin and BSA", "setting": "[1]", "result": 35, "unit": "%"}, {"measurement": "residual LPL activity (ITC, human plasma) after 130 min of 200 nM LPL with 1 μM ANGPTL4 in the presence of heparin or BSA alone", "setting": "[1]", "result": 55, "unit": "%"}]}
{"binder": "B2", "values": [{"measurement": "Kd", "setting": "[2]", "result": "500 ± 51", "unit": "µM"}, {"measurement": "inactivation rate constant (ki) of LPL by 100 nM nANGPTL4 during lipolysis of CM/VLDL (ITC), at 10 or 50 mg/ml BSA against 2 mg/ml BSA", "setting": "[3]", "result": "~1.6", "unit": "fold"}]}
{"binder": "B3", "values": [{"measurement": "Kd", "setting": "[4]", "result": "30 to 70", "unit": "µM"}, {"measurement": "Kd", "setting": "[5]", "result": 12.6, "unit": "µM"}]}
